Publication PMC8092709 (Journal of Virology, 2021)

Tests used:
[1] = target: human aminopeptidase N (hAPN), residues 66 to 967 (human) (UniProt P15144); test: SPR
[2] = target: T1, HCoV-229E S glycoprotein ectodomain trimer (S-trimer) (HCoV-229E, UniProt P15423 16-1116); test: SPR
T1 sequence: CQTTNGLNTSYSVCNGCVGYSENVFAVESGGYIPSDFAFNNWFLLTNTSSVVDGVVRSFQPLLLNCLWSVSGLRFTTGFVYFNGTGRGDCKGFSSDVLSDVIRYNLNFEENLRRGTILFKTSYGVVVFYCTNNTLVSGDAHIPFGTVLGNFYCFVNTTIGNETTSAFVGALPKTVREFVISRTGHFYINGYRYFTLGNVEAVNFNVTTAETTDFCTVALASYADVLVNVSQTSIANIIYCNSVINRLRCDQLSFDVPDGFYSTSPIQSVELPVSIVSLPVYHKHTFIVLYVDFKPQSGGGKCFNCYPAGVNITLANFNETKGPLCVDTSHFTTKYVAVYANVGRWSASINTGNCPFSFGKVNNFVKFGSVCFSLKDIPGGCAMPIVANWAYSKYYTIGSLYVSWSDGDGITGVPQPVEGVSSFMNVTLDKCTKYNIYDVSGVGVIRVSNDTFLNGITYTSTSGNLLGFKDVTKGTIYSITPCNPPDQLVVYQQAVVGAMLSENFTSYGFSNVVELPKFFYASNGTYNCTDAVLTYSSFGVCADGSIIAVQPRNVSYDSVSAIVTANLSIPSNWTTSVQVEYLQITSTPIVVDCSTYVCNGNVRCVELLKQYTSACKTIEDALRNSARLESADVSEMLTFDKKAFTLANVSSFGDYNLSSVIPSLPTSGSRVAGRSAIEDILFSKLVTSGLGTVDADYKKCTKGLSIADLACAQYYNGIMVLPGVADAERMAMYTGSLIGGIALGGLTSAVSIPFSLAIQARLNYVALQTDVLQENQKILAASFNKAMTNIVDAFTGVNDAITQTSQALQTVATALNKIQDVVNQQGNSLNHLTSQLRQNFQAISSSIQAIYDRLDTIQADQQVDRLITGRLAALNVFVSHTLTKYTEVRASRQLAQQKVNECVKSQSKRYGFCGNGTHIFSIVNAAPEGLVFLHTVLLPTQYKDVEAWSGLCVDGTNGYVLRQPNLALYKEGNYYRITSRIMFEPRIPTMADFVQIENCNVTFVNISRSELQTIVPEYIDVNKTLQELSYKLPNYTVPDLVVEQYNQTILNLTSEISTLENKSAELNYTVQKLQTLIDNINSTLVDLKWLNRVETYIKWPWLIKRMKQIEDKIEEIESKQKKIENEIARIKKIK

**Q.** How did the Kd [1] turn out when “HCoV-229E NTD-deficient S-trimer (S-trimer/ΔNTD) (from UniProt P15423 16-1116) (domain or fragment)” was run?
**A.** 2.12 nM

**Q.** And the koff [1]?
**A.** 4.1e-05 s⁻¹

**Q.** What about the kon [1] of the same molecule?
**A.** 19400 M⁻¹ s⁻¹

B1: human aminopeptidase N (hAPN), residues 66 to 967 (receptor)
chain: DQSKAWNRYRLPNTLKPDSYRVTLRPYLTPNDRGLYVFKGSSTVRFTCKEATDVIIIHSKKLNYTLSQGHRVVLRGVGGSQPPDIDKTELVEPTEYLVVHLKGSLVKDSQYEMDSEFEGELADDLAGFYRSEYMEGNVRKVVATTQMQAADARKSFPCFDEPAMKAEFNITLIHPKDLTALSNMLPKGPSTPLPEDPNWNVTEFHTTPKMSTYLLAFIVSEFDYVEKQASNGVLIRIWARPSAIAAGHGDYALNVTGPILNFFAGHYDTPYPLPKSDQIGLPDFNAGAMENWGLVTYRENSLLFDPLSSSSSNKERVVTVIAHELAHQWFGNLVTIEWWNDLWLNEGFASYVEYLGADYAEPTWNLKDLMVLNDVYRVMAVDALASSHPLSTPASEINTPAQISELFDAISYSKGASVLRMLSSFLSEDVFKQGLASYLHTFAYQNTIYLNLWDHLQEAVNNRSIQLPTTVRDIMNRWTLQMGFPVITVDTSTGTLSQEHFLLDPDSNVTRPSEFNYVWIVPITSIRDGRQQQDYWLIDVRAQNDLFSTSGNEWVLLNLNVTGYYRVNYDEENWRKIQTQLQRDHSAIPVINRAQIINDAFNLASAHKVPVTLALNNTLFLIEERQYMPWEAALSSLSYFKLMFDRSEVYGPMKNYLKKQVTPLFIHFRNNTNNWREIPENLMDQYSEVNAISTACSNGVPECEEMVSGLFKQWMENPNNNPIHPNLRSTVYCNAIAQGGEEEWDFAWEQFRNATLVNEADKLRAALACSKELWILNRYLSYTLNPDLIRKQDATSTIISITNNVIGQGLVWDFVQSNWKKLFNDYGGGSFSFSNLIQAVTRRFSTEYELQQLEQFKKDNEETGFGSGTRALEQALEKTKANIKWVKENKEVVLQWFTENSK
**Q.** What does the source list for B1?
**A.** Kd [2]: 3.29 nM; koff [2]: 0.000121 s⁻¹; kon [2]: 36700 M⁻¹ s⁻¹
